Experiments:
Conditions in all cases: 20 nM; 72 h
[1] = tested on: MCF10A; assay: percent viability (nuclei count relative to siNT); higher = more viable cells
Description: (§1)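 After 72 h, cells were fixed and stained with Hoechst and anti-fibrillarin, and nucleoli per nucleus were counted with CellProfiler. Values are plate-adjusted percent effect for the one-nucleolus and 5+ nucleoli phenotypes, normalised to siNT (0%) and to the positive controls siNOL11 or siKIF11 (100%), as the mean of biological triplicates. Percent viability is the nuclei count relative to siNT.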

[2] = tested on: MCF10A; assay: 5+ nucleoli phenotype percent effect (relative to siNT 0% and siKIF11 100%); higher = more cells with five or more nucleoli
Description: as §1

[3] = tested on: MCF10A; assay: one-nucleolus phenotype percent effect (relative to siNT 0% and siNOL11 100%); higher = more cells with one nucleolus (ribosome biogenesis inhibition)
Description: as §1

| Sequence | percent viability [1] [%] | 5+ nucleoli phenotype percent effect [2] [%] | one-nucleolus phenotype percent effect [3] [%] |
| --- | --- | --- | --- |
| CUGGCCCUCUCUGCCCUUCCGU [hsa-miR-328] | 64 | 47.4 | -8.63 |
| GGCUAGCAACAGCGCUUACCU [hsa-miR-621] | 51.6 | -15.8 | 15.2 |
| GAUCCCUUUAUCUGUCCUCUAG [hsa-miR-6866-3p] | 112 | 77.6 | -33.5 |
| UCCUGUCCCUGUCUCCUACAG [hsa-miR-6748-3p] | 47 | 17 | -15.9 |
| AUGGUCUCCUGUUCUCUGCAG [hsa-miR-6843-3p] | 31.7 | 7.69 | 10.8 |
| AAAGAUCUGGAAGUGGGAGACA [hsa-miR-3156-5p] | 43.6 | 45.1 | -18.8 |
| UGGAUAUGAUGACUGAAA [hsa-miR-4791] | 71.5 | 4.66 | -7.67 |
| GUGAGACUUCUCUCCCUUCAG [hsa-miR-6864-3p] | 41.4 | -9.96 | 14.5 |
| UGACCCACCCCUCUCCACCAG [hsa-miR-7114-3p] | 35.3 | -4.79 | 6.96 |
| GGCUCCUUGGUCUAGGGGUA [hsa-miR-4448] | 45.2 | 20.5 | -9.36 |
| CUGUACAGCCUCCUAGCUUUCC [hsa-let-7a-2-3p] | 43.3 | -34.3 | 2.44 |
| UUCAUUCGGCUGUCCAGAUGUA [hsa-miR-1298] | 130 | 33.4 | -24.3 |
| UAGUGAGUUAGAGAUGCAGAGCC [hsa-miR-3174] | 38.1 | -38.2 | 12.5 |
| GGUGGGCUUCCCGGAGGG [hsa-miR-4417] | 77.8 | 35.5 | -24.2 |
| GAACUCACCCUCUGCUCCCAG [hsa-miR-6750-3p] | 99 | 29.7 | -8.73 |
| GGGAGCCAGGAAGUAUUGAUGU [hsa-miR-505-5p] | 68.7 | 1.85 | 10.3 |
| UCUGCACUGUGAGUUGGCUGGCU [hsa-miR-4793-3p] | 44.7 | -3.16 | 10.7 |
| AUGCAGGCCUGUGUACAGCACU [hsa-miR-6811-5p] | 19.1 | -31.3 | 57 |
| AUCUGCCAGCUUCCACAGUGG [hsa-miR-4727-5p] | 42.4 | -25.7 | 17.9 |
| UAUAUAUACAGCCAUGCACUC [hsa-miR-5011-5p] | 74.6 | 39.8 | -18.5 |
| UGGAAGGAGGUUGCCGGACGCU [hsa-miR-4533] | 46.4 | -14.3 | 9.34 |
| UGAUAUGUUUGAUAUUGGGUU [hsa-miR-190b] | 36 | -11.2 | 21.8 |
| CAGUGCAAUGAUAUUGUCAAAGC [hsa-miR-301b] | 95.6 | 45.2 | -11.1 |

| Sequence | percent viability [1] [%] | 5+ nucleoli phenotype percent effect [2] [%] | one-nucleolus phenotype percent effect [3] [%] |
| --- | --- | --- | --- |
| GCCCUCUGUCACCUUGCAGACG [hsa-miR-2276-5p] | 103 | 60.2 | -20.8 |
| UCUGUGAGACCAAAGAACUACU [hsa-miR-4677-3p] | 28.6 | -42.7 | 23.1 |
| CAGGGAGGUGAAUGUGAU [hsa-miR-1321] | 20.2 | 6.81 | 19.8 |
| UACAGUACUGUGAUAACUGAA [hsa-miR-101-3p] | 86 | -26.5 | 11.6 |
| UGCGUUUCUCCUCUUGAGCAG [hsa-miR-6854-3p] | 23.5 | -12.2 | 21.3 |
| CUAUUAAGGACAUUUGUGAUUC [hsa-miR-4477a] | 32.6 | -13.7 | -0.508 |
| UCAGGCCAGGCACAGUGGCUCA [hsa-miR-1972] | 30.6 | 17.7 | -4.54 |
| UGGGGCUAGUGAUGCAGGACG [hsa-miR-4489] | 18.6 | -9.01 | 25.8 |
| UCAAAAUGUAGAGGAAGACCCCA [hsa-miR-4698] | 127 | 21.6 | -18.4 |
| AGUGGGAGGCCAGGGCACGGCA [hsa-miR-1233-1-5p] | 26.5 | -38.8 | 24.3 |
| AGGUGGUCCGUGGCGCGUUCGC [hsa-miR-323a-5p] | 19.8 | -21.1 | 36.4 |
| AGGACUGAUCCUCUCGGGCAGG [hsa-miR-4740-5p] | 24.1 | -14.8 | 47.7 |
| UCACCUGGCUGGCCCGCCCAG [hsa-miR-6765-3p] | 63.1 | 30.1 | -20.5 |
| UACUCCAGAGGGCGUCACUCAUG [hsa-miR-508-5p] | 60.6 | 0.947 | 19.6 |
| UCAAUAAAUGUCUGUUGAAUU [hsa-miR-95-5p] | 101 | 26.3 | -26.5 |
| UGAUGGAGCUGGGAAUACUCUG [hsa-miR-8082] | 22.3 | -14.2 | 21.8 |
| GGUGGGGGGUGUUGUUUU [hsa-miR-4472] | 40 | 11.6 | 9.55 |
| UGCUGGCUCAUUUCAUAUGUGU [hsa-miR-5580-5p] | 29.6 | -18.4 | 22.1 |
| ACUCCAGCCCCACAGCCUCAGC [hsa-miR-766-3p] | 39 | -19.8 | 15.5 |
| CCUCCAAAGGGAAGCGCUUUCUGUU [hsa-miR-519d-5p] | 65.3 | 21.8 | -10.6 |
| AAUAAUAUCACAGUAGGUGU [hsa-miR-5692b] | 155 | 46.7 | -19.9 |
| AUAUUAUUAGCCACUUCUGGAU [hsa-miR-4795-3p] | 27.9 | -25.8 | 3.49 |

Source: the supplement of paper PMC10899765
